Like-named read-outs stand apart in the source and are kept apart here.
What was measured:
[1] = biological target: 10-amber 13-amber hoc-del soc-del T4 heads (bacteriophage T4) (UniProt P04535)
[2] = biological target: 10-amber 13-amber hoc-del soc-del T4 heads (bacteriophage T4) (UniProt P04535); assay: display on T4 heads, copies per capsid compared
[3] = biological target: 10-amber 13-amber hoc-del soc-del T4 heads (bacteriophage T4) (UniProt P04535); assay: display titration on T4 heads, SDS-PAGE (FIG. 21)
[4] = biological target: 10-amber 13-amber hoc-del soc-del T4 heads (bacteriophage T4) (UniProt P04535); assay: co-display with Cas9-gRNA RNP on the same T4 head
[5] = biological target: 10-amber 13-amber hoc-del soc-del T4 heads (bacteriophage T4) (UniProt P04535); assay: display of RNP on T4 heads through Soc
[6] = biological target: 10-amber 13-amber hoc-del soc-del T4 heads (bacteriophage T4) (UniProt P04535); assay: co-display with Cre-Hoc on the same T4 head
[7] = biological target: 10-amber 13-amber hoc-del soc-del T4 heads (bacteriophage T4) (UniProt P04535); assay: Soc-TAT displayed on T4(Luci) heads used for transduction (FIG. 28)
[8] = biological target: 10-amber 13-amber hoc-del soc-del T4 heads (bacteriophage T4) (UniProt P04535); assay: in vitro display on T4 heads, pelleting, SDS-PAGE densitometry against gp23* (930 copies)
[9] = biological target: 10-amber 13-amber hoc-del soc-del T4 heads (bacteriophage T4) (UniProt P04535); assay: display titration on T4 heads, SDS-PAGE (FIG. 20)

Row | Substance | Copies/capsid (copies per capsid) [1] | other results
1 | Soc-RGD (from UniProt P03715 1-80) | 710 | fold copy number against RGD-Hoc [2]: 8.3 fold
2 | Cre-Hoc (enzyme) | 95 | ratio of protein molecules to binding sites at saturation (molecules per binding site) [3]: 15 to 20; copies per capsid (molecules per AV) [4]: 50
3 | Cas9-gRNA ribonucleoprotein (RNP) complex fused to Soc (from UniProt Q99ZW2 1-1368) |  | copies per capsid (copies per capsid) [5]: 280; copies per capsid (molecules per AV) [6]: 270
4 | Soc-TAT (from UniProt P03715 1-80) | 750 | copies per capsid (copies per capsid) [7]: 520
5 | Cpf1-Soc (enzyme) |  | Copies/capsid (copies per capsid) [8]: 450
6 | Cre-Soc (enzyme) | 630 | 
7 | RGD-Hoc (from UniProt P18056 1-376) | 85 | 
8 | β-Gal-Soc (from UniProt P00722 1-1024; P03715 1-80) (enzyme) | 320 | ratio of protein molecules to binding sites at saturation (molecules per binding site) [9]: 15 to 20
9 | NLS-Cas9-Soc (from UniProt Q99ZW2 1-1368) (enzyme) | 550 | 
10 | GFP-Soc (from UniProt P03715 1-80) | 660 | 

From patent US20220090139A1
